US20240116985A1 (published 2024)
Starred links: 1 amine or outer side, 2 acyl side, 3 side chain; linkers in the order of their positions; H or OH if unused. Positions of bridges follow the written chain, without caps; N, C: chain ends. Non-standard residues stand in square brackets, D forms with d. Primed or numbered codes have the meaning given here. (CH2CMe2CO2H)TriAzDap = (S)-3-(1-(2-amino-2-carboxyethyl)-1H-1,2,3-triazol-4-yl)-2,2-dimethylpropanoic acid, CC(C)(Cc1cn(C[C@H](N[*:1])C(=O)[*:2])nn1)C(=O)[*:3]; (CH2CMe2CO2H)TriAzDab = (S)-2-amino-4-(4-(2-carboxy-2-methylpropyl)-1H-1,2,3-triazol-1-yl)butanoic acid, CC(C)(Cc1cn(CC[C@H](N[*:1])C(=O)[*:2])nn1)C(=O)[*:3]; (CMe2CO2H)TriAzDab = (S)-2-amino-4-(4-(2-carboxypropan-2-yl)-1H-1,2,3-triazol-1-yl)butanoic acid, CC(C)(C(=O)[*:3])c1cn(CC[C@H](N[*:1])C(=O)[*:2])nn1; (CMe2CO2H)TriAzDap = (S)-2-amino-3-(4-(2-carboxypropan-2-yl)-1H-1,2,3-triazol-1-yl)propanoic acid, CC(C)(C(=O)[*:3])c1cn(C[C@H](N[*:1])C(=O)[*:2])nn1; PyrS2″ = (S)-3-amino-1-((pent-4-en-1-yloxy)carbonyl)pyrrolidine-3-carboxylic acid (stapling residue), C=CCCCOC(=O)N1CC[C@@](N[*:1])(C(=O)[*:2])C1; (2COOHPh)TriAzDap = (S)-2-(1-(2-amino-2-carboxyethyl)-1H-1,2,3-triazol-4-yl)benzoic acid, O=C([C@H](Cn1cc(-c2ccccc2C(=O)[*:3])nn1)N[*:1])[*:2]; (CH2CH2CO2H)TriAzDab = (S)-2-amino-4-(4-(2-carboxyethyl)-1H-1,2,3-triazol-1-yl)butanoic acid, O=C([C@H](CCn1cc(CCC(=O)[*:3])nn1)N[*:1])[*:2]; (CH2CO2H)TriAzDab = (S)-2-amino-4-(4-(carboxymethyl)-1H-1,2,3-triazol-1-yl)butanoic acid, O=C([C@H](CCn1cc(CC(=O)[*:3])nn1)N[*:1])[*:2]; (CH2CO2H)TriAzDap = (S)-2-amino-3-(4-(carboxymethyl)-1H-1,2,3-triazol-1-yl)propanoic acid, O=C([C@H](Cn1cc(CC(=O)[*:3])nn1)N[*:1])[*:2]; B5(4) = 2,2-bis(4-pentenyl)glycine = 2-amino-2-(pent-4-en-1-yl)hept-6-enoic acid (stitching residue), C=CCCCC(CCCC=C)(N[*:1])C(=O)[*:2]; (2COOH4NH2Ph)Dap = (S)-5-amino-2-((2-amino-2-carboxyethyl)amino)benzoic acid, Nc1ccc(NC[C@H](N[*:1])C(=O)[*:2])c(C(=O)[*:3])c1; (2COOHPh)TriAzDab = O=C([C@H](CCn1cc(-c2ccccc2C(=O)[*:3])nn1)N[*:1])[*:2]; Phe(3-COOH) = N[C@@H](Cc1cccc(C(=O)O)c1)C(=O)O; 2F3MeF = Cc1cccc(C[C@H](N[*:1])C(=O)[*:2])c1F; Phe(2-CF3) = N[C@@H](Cc1ccccc1C(F)(F)F)C(=O)O; Bta = N[C@@H](Cc1csc2ccccc12)C(=O)O; αAllylPro = C=CC[C@@]1(C(=O)O)CCCN1; tBuAla = CC(C)(C)C[C@H](N)C(=O)O; 3Thi = N[C@@H](Cc1ccsc1)C(=O)O; PyrS2(4) = not defined here

T1: Bcat-Halo (UniProt P35222 1-781)
T1 sequence (looked up): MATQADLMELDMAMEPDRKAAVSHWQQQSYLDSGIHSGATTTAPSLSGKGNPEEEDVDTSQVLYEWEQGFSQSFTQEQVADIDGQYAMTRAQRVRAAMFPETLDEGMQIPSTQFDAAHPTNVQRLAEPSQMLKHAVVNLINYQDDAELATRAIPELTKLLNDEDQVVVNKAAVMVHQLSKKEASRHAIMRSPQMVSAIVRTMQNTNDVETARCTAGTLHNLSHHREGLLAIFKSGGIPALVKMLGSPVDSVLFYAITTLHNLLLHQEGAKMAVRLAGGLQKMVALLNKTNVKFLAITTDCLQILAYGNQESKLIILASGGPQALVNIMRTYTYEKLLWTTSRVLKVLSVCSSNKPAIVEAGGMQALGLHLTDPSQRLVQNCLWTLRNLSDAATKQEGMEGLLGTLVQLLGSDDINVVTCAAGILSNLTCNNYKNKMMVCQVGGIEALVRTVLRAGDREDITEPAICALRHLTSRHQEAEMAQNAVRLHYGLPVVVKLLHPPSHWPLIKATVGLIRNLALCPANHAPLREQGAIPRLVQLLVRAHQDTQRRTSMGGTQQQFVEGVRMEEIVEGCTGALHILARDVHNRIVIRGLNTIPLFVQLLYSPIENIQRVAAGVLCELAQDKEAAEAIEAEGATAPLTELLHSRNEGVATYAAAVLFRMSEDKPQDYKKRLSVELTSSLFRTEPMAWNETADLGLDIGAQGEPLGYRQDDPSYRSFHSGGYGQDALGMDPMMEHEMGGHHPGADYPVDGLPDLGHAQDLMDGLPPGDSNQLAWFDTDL


biological target: T1, Bcat-Halo; experiment: cell-based or functional assay

Binder | NanoBRET Abs IC50 [µM]
Ac-[αAllylPro]D[tBuAla][B5(4)]D[(2COOHPh)TriAzDap]AAFL[PyrS2″][3Thi][Bta]Q-NH2 (staple 1-4, 4-11) [I-2086] | 16.4
Ac-[αAllylPro]D[tBuAla][B5(4)]D[Phe(3-COOH)]AAFF[PyrS2″][2F3MeF][Bta][dA]-NH2 (staple 1-4, 4-11) [I-2095] | 10.5
Ac-[αAllylPro]D[tBuAla][B5(4)]D[Phe(3-COOH)]AAFF[PyrS2″][Phe(2-CF3)][Bta][dQ]-NH2 (staple 1-4, 4-11) [I-2093] | 5
Ac-[αAllylPro]D[tBuAla][B5(4)]D[(2COOH4NH2Ph)Dap]AAFL[PyrS2″][3Thi][Bta]Q-NH2 (staple 1-4, 4-11) [I-2087] | 6.5
Ac-[αAllylPro]D[tBuAla][B5(4)]D[(CMe2CO2H)TriAzDap]AAFL[PyrS2″][3Thi][Bta]Q-NH2 (staple 1-4, 4-11) [I-2085] | 6.2
Ac-[αAllylPro]D[tBuAla][B5(4)]D[Phe(3-COOH)]AAFF[PyrS2(4)][3Thi][Bta][dA]-NH2 (staple 1-4, 4-11; reading uncertain) [I-2094] | 9.7
Ac-[αAllylPro]D[tBuAla][B5(4)]D[(2COOHPh)TriAzDab]AAFL[PyrS2(4)][3Thi][Bta]Q-NH2 (staple 1-4, 4-11; not fully specified; reading uncertain) [I-2081] | 11.6
Ac-[αAllylPro]D[tBuAla][B5(4)]D[(CH2CO2H)TriAzDap]AAFL[PyrS2″][3Thi][Bta]Q-NH2 (staple 1-4, 4-11) [I-2084] | 9.2
Ac-[αAllylPro]D[tBuAla][B5(4)]D[(CMe2CO2H)TriAzDab]AAFL[PyrS2″][3Thi][Bta]Q-NH2 (staple 1-4, 4-11) [I-2079] | 15.1
Ac-[αAllylPro]D[tBuAla][B5(4)]D[(CH2CMe2CO2H)TriAzDab]AAFL[PyrS2″][3Thi][Bta]Q-NH2 (staple 1-4, 4-11) [I-2077] | 12.3
Ac-[αAllylPro]D[tBuAla][B5(4)]D[(CH2CH2CO2H)TriAzDab]AAFL[PyrS2″][3Thi][Bta]Q-NH2 (staple 1-4, 4-11) [I-2076] | 14.1
Ac-[αAllylPro]D[tBuAla][B5(4)]D[(CH2CO2H)TriAzDab]AAFL[PyrS2″][3Thi][Bta]Q-NH2 (staple 1-4, 4-11) [I-2078] | 11.7
Ac-[αAllylPro]D[tBuAla][B5(4)]D[Phe(3-COOH)]AAFF[PyrS2″][3Thi][Bta][dQ]-NH2 (staple 1-4, 4-11) [I-2092] | 4.4
Ac-[αAllylPro]D[tBuAla][B5(4)]D[(CH2CMe2CO2H)TriAzDap]AAFL[PyrS2″][3Thi][Bta]Q-NH2 (staple 1-4, 4-11) [I-2083] | 3.7
